The target in experiment [1] is T1, human ANGPTL8 peptide (hANGPTL8 peptide, SEQ ID NO: 337) (human).
T1 construct: also called N-terminal region ANGPTL8 peptide
T1 peptide: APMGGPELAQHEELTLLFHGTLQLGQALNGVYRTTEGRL
Put plainly: SPR, captured mAb, 500 nM peptide, 25C. Here is the method:
(§1) The assay utilized a format where ANGPTL8 antibodies were captured on the sensor surface and peptides were injected over the antibody surface. Peptides from the N-terminal coiled-coil region of human ANGPTL3 (hANGPTL3 peptide, SEQ ID NO: 338) and human ANGPTL4 (hANGPTL4 peptide, SEQ ID NO: 339) were also included as controls. Also included was a control antibody (H4H268P from US2011/0159015A1) that binds to the ANGPTL4 peptide and a negative isotype control antibody. All binding studies were performed in 10 mM HEPES pH 7.4, 150 mM NaCl, 3 mM EDTA, and 0.05% v/v Surfactant Tween-20 (HBS-ET running buffer) at 25° C. The HCA sensor surface was derivatized via amine coupling to a monoclonal mouse anti-human Fc antibody (GE, # BR-1008-39), and to this surface was captured approximately 1000 RU of each ANGPTL8 antibody or control antibody. Peptide stock solutions were diluted in HBS-ET running buffer to 500 nM and injected over the antibody-captured surfaces for 4 minutes at a flow rate of 30 μL/minute followed by the dissociation of bound peptide in HBS-ET running buffer for 10 minutes.
(§2) Dissociative half-lives (t½) were calculated from kd as: […]
For orientation: SPR reads the build-up and loss of mass on a sensor chip optically.

The target of experiment [2] is T2, peptide from the N-terminal coiled-coil region of human ANGPTL3 (hANGPTL3 peptide, SEQ ID NO: 338) (human).
T2 construct: also called hANGPTL3 shift peptide
T2 peptide: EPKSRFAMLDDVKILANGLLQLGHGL
The experiment can be described thus: SPR, captured mAb, 500 nM peptide, 25C. The method, then:
as §1, §2

The target in experiment [3] is T3, peptide from the N-terminal coiled-coil region of human ANGPTL4 (hANGPTL4 peptide, SEQ ID NO: 339) (human).
T3 peptide: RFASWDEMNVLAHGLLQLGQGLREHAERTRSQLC
Put plainly: SPR, captured mAb, 500 nM peptide, 25C. The method, then:
as §1, §2

In experiment [4] the target is T4, anti-mFc (AMC) Octet biosensor, blank.
T4 construct: Sensor without captured protein, used as blank; also called Blank AMC Sensor
Put plainly: BLI Octet, blank AMC sensor, 100 nM mAb, 25C. The method, then:
(§3) Binding of ANGPTL8 antibodies to human and monkey ANGPTL8 proteins was investigated using Bio-layer Interferometry with an Octet HTX biosensor platform (ForteBio, A Division of Pall Life Sciences). All experiments were performed at 25° C. in 10 mM HEPES pH 7.4, 150 mM NaCl, 0.05% v/v Surfactant Tween-20, and 1 mg/ml BSA with the reaction multiwell plate agitated at 1000 rpm. Approximately 1.6 nm of human ANGPTL8 produced with a C-terminal mouse IgG2a Fc tag (hANGPTL8-mFc; SEQ ID NO: 340) or cynomolgus monkey ANGPTL8 produced with a C-terminal mouse IgG2a Fc tag (MfANGPTL8-mFc; SEQ ID NO: 341) was captured onto anti-mFc (AMC) Octet biosensors by submerging the sensors into wells containing 10 μg/mL of each protein for 4 minutes. Under the same conditions a negative control protein with the same mFc tag (hLDLR-mFc) was also coupled to the AMC sensor. All four sensors, […] and one blank, were then submerged into wells containing 100 nM of different ANGPTL8 monoclonal antibodies or an isotype control for 4 minutes.

The target in experiment [5] is T5, human ANGPTL8 expressed with C-terminal mouse IgG2a Fc tag (hANGPTL8-mFc; SEQ ID NO: 340) (human).
T5 construct: also called Angiopoietin-like protein 8
T5 chain: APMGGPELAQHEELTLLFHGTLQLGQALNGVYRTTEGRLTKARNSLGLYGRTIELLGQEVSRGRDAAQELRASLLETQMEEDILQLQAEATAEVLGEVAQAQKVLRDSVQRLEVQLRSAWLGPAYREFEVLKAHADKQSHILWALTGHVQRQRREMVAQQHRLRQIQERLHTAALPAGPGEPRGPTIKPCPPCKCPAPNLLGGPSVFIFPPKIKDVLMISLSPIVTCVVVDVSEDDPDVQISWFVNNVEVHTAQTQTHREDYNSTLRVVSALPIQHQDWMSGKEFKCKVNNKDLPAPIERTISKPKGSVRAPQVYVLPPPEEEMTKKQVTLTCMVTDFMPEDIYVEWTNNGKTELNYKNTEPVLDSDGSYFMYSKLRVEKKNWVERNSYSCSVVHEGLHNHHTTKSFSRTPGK
Put plainly: BLI Octet, captured antigen, 100 nM mAb, 25C. The method, then: as §3
On the technique in general: In BLI a coated tip is dipped into the sample, and binding shifts an interference pattern.

Experiment [6] deals with T6, monkey ANGPTL8 expressed with C-terminal mouse IgG2a Fc tag (MfANGPTL8-mFc; SEQ ID NO: 341) (cynomolgus monkey).
T6 construct: also called cynomolgus monkey ANGPTL8
T6 chain: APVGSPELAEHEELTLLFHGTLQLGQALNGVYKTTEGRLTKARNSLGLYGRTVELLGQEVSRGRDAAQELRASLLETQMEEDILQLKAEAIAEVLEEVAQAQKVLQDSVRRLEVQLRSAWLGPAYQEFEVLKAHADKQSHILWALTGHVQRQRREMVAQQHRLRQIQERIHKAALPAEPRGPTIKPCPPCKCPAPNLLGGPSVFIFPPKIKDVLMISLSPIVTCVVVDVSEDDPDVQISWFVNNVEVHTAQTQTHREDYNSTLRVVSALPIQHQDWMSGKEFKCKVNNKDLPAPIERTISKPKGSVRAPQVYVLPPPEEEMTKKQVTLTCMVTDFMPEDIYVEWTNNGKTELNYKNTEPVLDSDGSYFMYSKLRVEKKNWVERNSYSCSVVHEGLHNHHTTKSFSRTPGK
The experiment can be described thus: BLI Octet, captured antigen, 100 nM mAb, 25C. Here is the method:
as §3

B1: H4H15335P (antibody, human IgG4, V domains shown)
VH: QVQLVESGGGVVQPGRSLRLSCAASGFTFNNYGIHWVRQAPGKGLEWVAVISYDESNKYYADSVKGRFTISRDNSKNTLYLQMNSLRAEDTAVYYCAKDIRIAARRHYYYYGMDVWGQGTTVTVSS
VL: DIQMTQSPSSVSASVGDRVTITCRASQGISRWLAWYQQKPGKAPKLLIYAASSLESGVPARFSGSGSGTDFTLTISSLQPEDFATYYCQQANSFPITFGPGTKVDIK
notes: H4H prefix: human IgG4 Fc
For B1, the “500 nM hANGPTL8 peptide Bound (RU)” value in experiment [1] worked out at 0 RU. In addition, the binding result in experiment [1] and in experiment [3] was “no binding (tested: <9 RU at 500 nM peptide)” throughout. Moreover, the “500 nM hANGPTL3 peptide Bound (RU)” value in experiment [2] is -1 RU. The “500 nM hAngPTL4 peptide Bound (RU)” value in experiment [3] was determined as 1 RU. In addition, the “mAb Binding Response (nm)” value turned out to be 0.01 nm in experiment [4], 0.06 nm in experiment [5] and 0.04 nm in experiment [6].

B2: H4H15363P2 (antibody, human IgG4, V domains shown)
VH: EVQLVESGGGLVQPGGSLRLSCAASGFTFSNYAMSWVRQVPGKGLEWVSTISGSGGSTYYADSVKGRFTISRDNSKNSLYLQMNSLRAEDTAVYYCAKLVRGVIGWFDPWGQGTLVTVSS
VL: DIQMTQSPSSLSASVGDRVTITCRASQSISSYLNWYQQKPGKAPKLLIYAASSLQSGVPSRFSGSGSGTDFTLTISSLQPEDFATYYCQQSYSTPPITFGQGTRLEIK
notes: H4H prefix: human IgG4 Fc
As to B2, the “500 nM hANGPTL8 peptide Bound (RU)” value in experiment [1] is 0 RU. Moreover, the binding result in experiment [1], in experiment [2] and in experiment [3] was “no binding (tested: <9 RU at 500 nM peptide)” each time. Also, in experiment [2], the “500 nM hANGPTL3 peptide Bound (RU)” value came out at 0 RU. The “500 nM hAngPTL4 peptide Bound (RU)” value in experiment [3] was 0 RU. Also, the “mAb Binding Response (nm)” value in experiment [4] came to 0.02 nm; in experiment [5], 0.25 nm; in experiment [6], 0.26 nm.

B3: H4H15355P2 (antibody, human IgG4, V domains shown)
VH: QVQLVESGGGVVQPGRSLRLSCAASGFTFTNYAMHWVRQAPGKGLEWVAVISYDGSHTYFADSVKGRFTMSRDNSKNTISLQMNSLRPEDTAVYFCAGGGATTWFYFYGLDVWGQGTTVTVSS
VL: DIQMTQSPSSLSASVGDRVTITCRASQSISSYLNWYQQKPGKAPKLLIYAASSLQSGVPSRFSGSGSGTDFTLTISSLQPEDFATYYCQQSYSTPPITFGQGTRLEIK
notes: H4H prefix: human IgG4 Fc
In the case of B3, in experiment [1], the “500 nM hANGPTL8 peptide Bound (RU)” value was 0 RU. Also, the binding result in experiment [1], in experiment [2] and in experiment [3] was “no binding (tested: <9 RU at 500 nM peptide)” throughout. For the same molecule, in experiment [2], the “500 nM hANGPTL3 peptide Bound (RU)” value turned out to be 0 RU. For the same molecule, in experiment [3], the “500 nM hAngPTL4 peptide Bound (RU)” value was determined as 0 RU. The entries for the “mAb Binding Response (nm)” value in experiment [4], in experiment [5] and in experiment [6] were 0.03 nm, 0.15 nm and 0.13 nm, respectively.

B4: H4H15361P2 (antibody, human IgG4, V domains shown)
VH: EVQLVESGGGLVQPGRSLRLSCTASGFSFGDNAMGWVRQAPGKGLEWVSFIRRKASGGTTEYAASVKGRFTISRDDSKSIAYLQMNSLKTEDTGVYYCTRGGAVYGYWGQGTLVTVSS
VL: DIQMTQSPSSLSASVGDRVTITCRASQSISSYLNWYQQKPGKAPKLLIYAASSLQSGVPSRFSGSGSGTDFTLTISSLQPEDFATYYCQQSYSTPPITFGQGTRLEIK
notes: H4H prefix: human IgG4 Fc
Turning to B4, in experiment [1], the “500 nM hANGPTL8 peptide Bound (RU)” value came to 4 RU. Further, the binding result in experiment [1], in experiment [2] and in experiment [3] was “no binding (tested: <9 RU at 500 nM peptide)” in each case. For the same molecule, the “500 nM hANGPTL3 peptide Bound (RU)” value in experiment [2] was found to be 0 RU. For the same molecule, in experiment [3], the “500 nM hAngPTL4 peptide Bound (RU)” value was found to be 0 RU. For the same molecule, the “mAb Binding Response (nm)” value is 0.02 nm in experiment [4], 0.2 nm in experiment [5] and 0.21 nm in experiment [6].

B5: H4H15357P2 (antibody, human IgG4, V domains shown)
VH: EVQLVESGGGLVKPGGSLRLSCTASGFTFGNAWMSWVRQAPGKGLEWVGLIKGKTDGGTTNYAAPVKGRFTISRDDSKNTLYLHLNSLRTEDTALYYCTTDQVELRQYYYYGLDVWGQGTTVTVSS
VL: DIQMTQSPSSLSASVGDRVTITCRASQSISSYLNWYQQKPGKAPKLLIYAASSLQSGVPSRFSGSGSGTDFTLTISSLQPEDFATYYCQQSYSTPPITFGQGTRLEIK
notes: H4H prefix: human IgG4 Fc
B5: the “500 nM hANGPTL8 peptide Bound (RU)” value in experiment [1] stood at 0 RU. Besides, the binding result in experiment [1], in experiment [2] and in experiment [3] was “no binding (tested: <9 RU at 500 nM peptide)” throughout. In addition, in experiment [2], the “500 nM hANGPTL3 peptide Bound (RU)” value was 0 RU. In experiment [3], the “500 nM hAngPTL4 peptide Bound (RU)” value was determined as 0 RU. The “mAb Binding Response (nm)” value in experiment [4] amounted to 0.02 nm; in experiment [5] it was 0.13 nm; in experiment [6], 0.08 nm.

B6: H4H15347P (antibody, human IgG4, V domains shown)
VH: EVQLVESGGGLVQPGGSLRLSCAASGFTFRNYAMNWARQAPGKGLEWVSGITGSGGATYYADSVKGRFTISRENSKNTLFLQMDTLRAEDTAVYYCAKDRRYFPTSGGPQWGQGTLVTVSS
VL: DIVMTQSPLSLPVTPGEPASISCRSSRSLLHSSGYNYLDWYLQKPGQSPQLLLYLGSNRASGVPDRFSGSGSGTYFTLKISRVDAEDVGVYYCMQALQTPWTFGQGTKVEIK
notes: H4H prefix: human IgG4 Fc
B6: the “500 nM hANGPTL8 peptide Bound (RU)” value in experiment [1] turned out to be 0 RU. Further, the binding result in experiment [1] and in experiment [3] was “no binding (tested: <9 RU at 500 nM peptide)” each time. Further, the “500 nM hANGPTL3 peptide Bound (RU)” value in experiment [2] was -1 RU. Moreover, the “500 nM hAngPTL4 peptide Bound (RU)” value in experiment [3] was determined as 0 RU. The “mAb Binding Response (nm)” value turned out to be 0.03 nm in experiment [4], 0.25 nm in experiment [5] and 0.29 nm in experiment [6].

B7: H4H15354P2 (antibody, human IgG4, V domains shown)
VH: QVQLVESGGGVVQPGRSLRLSCTASGFTFNNYGIHWVRQAPGKGLEWVAVISYDGSNKFYAESVRGRFTISRDNSRNTLFLQMISLRGEDSAVYYCAKDRPYYDILTAHYPSDYYFYAMDVWGHGTTVTVSS
VL: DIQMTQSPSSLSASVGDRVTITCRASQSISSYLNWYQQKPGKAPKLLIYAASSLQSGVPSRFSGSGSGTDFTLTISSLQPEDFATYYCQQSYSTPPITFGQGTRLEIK
notes: H4H prefix: human IgG4 Fc
Regarding B7, the “500 nM hANGPTL8 peptide Bound (RU)” value in experiment [1] was 0 RU. Also, the binding result in experiment [1], in experiment [2] and in experiment [3] was “no binding (tested: <9 RU at 500 nM peptide)” each time. Also, the “500 nM hANGPTL3 peptide Bound (RU)” value in experiment [2] worked out at 0 RU. Besides, the “500 nM hAngPTL4 peptide Bound (RU)” value in experiment [3] turned out to be 0 RU. For the same molecule, the “mAb Binding Response (nm)” value in experiment [4] worked out at 0.02 nm; in experiment [5], 0.05 nm; in experiment [6] it was 0.03 nm.

The values above are taken from patent publication US20170037124A1 (Regeneron, published 2017).
